These results are taken from the nanobody polyreactivity screen of Harvey et al. (2022).

A short description of the data set: yeast display, Sf9 membrane polyspecificity reagent, FACS + sequencing; frameworks hold sequencing errors. In short, it runs like this:
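Synthetic nanobody libraries on Saccharomyces cerevisiae BJ5465 were galactose-induced for 36–48 hours, stained 1 hour at 4 °C with 10% biotinylated, detergent-solubilized Sf9 membrane reagent and enriched on streptavidin microbeads. FACS then separated cells into low and high (top ~1%) gates by anti-HA (expression) and streptavidin (reagent binding) fluorescence. Genes were colony-PCR amplified, MiSeq 2 × 250 sequenced and CDR-length filtered. A clone's polyreactivity label is that of its gate of origin.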
With “QVQLVESGGGLVQAGGSLRLSCAASGSIFIDNAMGWYIQAPGKEREFVAAISKSGTSTYYADSVNGRFTISRDNAMNAVDLQMNSLKPEDTAVYYCAVRRPRPYSNYYYWGQGTQVTVSS”, the “polyreactivity (PSR sort gate)” value was “high polyreactivity”.

Regarding “QVQLVESGGGLVQAGGSLRLSCAASGSIFIDYAMGWYRQAPGKERELVATISNSGTSTYYADSVKGRFTISRDNAKNTVYLQMNSLKPEDTAVYYCAAEAWPYGDYYWGQGTQVTVSS”, the “polyreactivity (PSR sort gate)” value is listed as “low polyreactivity”.

Consider “QVQLVESGGGLVQAGGSLRLSCAASGSIFIGNTMGWYRQAPGKERELVATIRRSGSRTYDADSVKGRFTISRDNAKNTVYLQMNSLKPEDTAVYYCAADRLRTSGYKTIYDYWGQGTQVTVSS”, for which the “polyreactivity (PSR sort gate)” value is listed as “low polyreactivity”.

Consider “QVQLVESGGGLVQAGGSLRLSCAASGSIFIGNTMGWYRQAPGKERELVATIRRSGSRTYYADSVKGRFTISRDNAKNTVYLQLNSLKPEDTAVYYCAADRLRSSGYKTIYDYWGQGTQVTVSS”, for which the “polyreactivity (PSR sort gate)” value was “low polyreactivity”.

As to “QVQLVESGGGLVQAGGSLRLSCAASGSIFIGYAMGWNRQAPGKERELVAGISSNGGTTYYADSVKGRFTISRDNAKNTVYLQMNSLKPEDTAVYYCATQYYARGYLYDYWGHGTQVTVSS”, the “polyreactivity (PSR sort gate)” value is reported as “low polyreactivity”.

As to “QVQLVESGGGLVQAGGSLRLSCAASGSIFILNAMGWYRQAPGKERELGAAISWSGGRTNYADSVKGRFTISRDNAKNPVYLHMNSLKPEDTAVYYCAARVTPYRGFYYWGQGTQVTVSS”, the “polyreactivity (PSR sort gate)” value was “high polyreactivity”.

For “QVQLVESGGGLVQAGGSLRLSCAASGSIFINNTMGWYRQAPGKERELVAAISITGGSTYYADSVKGRFTISRDNAKNTVYLQMNSLKPEDTAVYYCAADPLQLYDYNYWGQGTQVTVSS”, the “polyreactivity (PSR sort gate)” value is given as “low polyreactivity”.

As for “QVQLVESGGGLVQAGGSLRLSCAASGSIFISYAMGWYRQAPGKERELVAAINSGGSTNYADSVKGRFTISRDNAKNTVYLQMNSLKPEDTAVYYCAVDGYFFQGPYYYWGQGTQVTVSS”, the “polyreactivity (PSR sort gate)” value is given as “low polyreactivity”.

Consider “QVQLVESGGGLVQAGGSLRLSCAASGSIFITYAMGWYRQAPGKERELVAAIRDSGDRTYYADSVKGRFTISRDNAKKTVYLQMNSLKPEDTAVYYCNARWQEPLKYDYWGQGTQVTVSS”, for which the “polyreactivity (PSR sort gate)” value was “low polyreactivity”.

On to “QVQLVESGGGLVQAGGSLRLSCAASGSIFIYNAMGWYRQAPGKERELVAAINWTGGSTYYADSVKGRFTISRDNAKNTVYLQMNSMKPEDTAVYYCNALRYGSTRGYDYWGQGSQVTVSS”, for which the “polyreactivity (PSR sort gate)” value is reported as “high polyreactivity”.

Take “QVQLVESGGGLVQAGGSLRLSCAASGSIFIYNVMGWYRQAPGKERELVATIRGSGGSTYYADSVKGRFTISRDNAQNTVYLQMNSLKPEDTAVYYCARRDYPVQWGRAYNYWGQGTQVTVSS”: the “polyreactivity (PSR sort gate)” value is “high polyreactivity”.

For the sequence “QVQLVESGGGLVQAGGSLRLSCAASGSIFIYYAMGWYRQAPGKERELVAAISSSGDSTNYADSVKGRFTISRDNAKNTVYLQMNSLKPEDTAVYYCAADPYYFYIWYWWPSFDYWGQGTQVTVSS”, the “polyreactivity (PSR sort gate)” value is given as “low polyreactivity”.

As for “QVQLVESGGGLVQAGGSLRLSCAASGSIFKGYAMGWYRQAPGKERELVAANTYSGGGTYYADSVKGRFTISRDNAKNTVYLQMKSLKQEDTAVYYCNADRYYPDDLSDGVGTYDYWGQGTQVSVSS”, the “polyreactivity (PSR sort gate)” value is “low polyreactivity”.

In the case of “QVQLVESGGGLVQAGGSLRLSCAASGSIFKKNAMGWYRQEPGKERELVAAITRRGASTYYADSVKGRFTISRDNAKNNVYLQMNSLKREDTAVYYCAAPGKIGASFDNYYYWGQGTQVTVSS”, the “polyreactivity (PSR sort gate)” value is reported as “high polyreactivity”.

Take “QVQLVESGGGLVQAGGSLRLSCAASGSIFKKYAMGWYRQAPGKERELVAAIRSSGGSTYYADSVKGRFTISRDNAKNTVYLQMNSLKPEDTAVYYCAAYVPQGYKLYYWGQGTQVSVSS”: the “polyreactivity (PSR sort gate)” value was “high polyreactivity”.

With “QVQLVESGGGLVQAGGSLRLSCAASGSIFKKYAMGWYRQAPGKERELVAAISKSGGSTYYADSVKGRFTISRDNAKNTVYLQMNSLKPDDTAVYYCAAAAGGSAYWDYDYWGQGTQVTVSS”, the “polyreactivity (PSR sort gate)” value is “low polyreactivity”.

In the case of “QVQLVESGGGLVQAGGSLRLSCAASGSIFKLYSMGWSRQAPGKERELVATIRWSGGSTYYADSVKGRFTISRDNAKNTVYLQMNSLKPEDTAVYYCAARRVRPNGYTSSPLDYWGQGTQVTVSS”, the “polyreactivity (PSR sort gate)” value is listed as “high polyreactivity”.

With “QVQLVESGGGLVQAGGSLRLSCAASGSIFKPYAMGWYRQAPGKERELVAAISGIGGSTYYADSVKGRFTISRDNAKNTVYLQMNCLKPEDTAVYYCAADTFFKIFSEYNYWGQGTQVTVSS”, the “polyreactivity (PSR sort gate)” value was “high polyreactivity”.

Regarding “QVQLVESGGGLVQAGGSLRLSCAASGSIFKPYAMGWYRQAPGKERELVAAISRSGSTYYADSVKGRFTISRDNAKNSVYLQMNSLKPEVTAVFYCAAETQARWRRYDYWGQGSQVTVSS”, the “polyreactivity (PSR sort gate)” value is “low polyreactivity”.

For the sequence “QVQLVESGGGLVQAGGSLRLSCAASGSIFKPYAMGWYRQAPGKERELVAVISSGGSTNYADSVKGRFTISRDNAKNTVYLQMNSLKPEDTAVYYCAAEDQYGYDYWGQGTQVTVSS”, the “polyreactivity (PSR sort gate)” value is listed as “high polyreactivity”.

Turning to “QVQLVESGGGLVQAGGSLRLSCAASGSIFKRNAMGWYRQAPGKERELVAAITGGGRTNYADSVKGRFTISRDNAKNTVYLQMNSLNPEDTAVYYCAADWYGVGLYYTWTRHDYWGQGTQVTVSS”, the “polyreactivity (PSR sort gate)” value was “low polyreactivity”.

On to “QVQLVESGGGLVQAGGSLRLSCAASGSIFKRNAMGWYRQAPGKERELVAAITSSGGTTYYADSVKGRFTISRDNAKNTVYLQMNSLKPEDTAVYYCNAGYGVRSVRRFDYWGQGTQVTVSS”, for which the “polyreactivity (PSR sort gate)” value is “high polyreactivity”.

In the case of “QVQLVESGGGLVQAGGSLRLSCAASGSIFKRYAMGWYRQAPGKERELVAAITYNGGSTYYADSVKGRFTISRDNAKNTVYLQMNSLKPEDTAVYYCAAERYNGYDYWGQGTQVTVSS”, the “polyreactivity (PSR sort gate)” value is reported as “high polyreactivity”.

Take “QVQLVESGGGLVQAGGSLRLSCAASGSIFKSNAMGWYRQAPGKERELVAAISNGGITNYADSVKGRFTISRDNAKNSVYLQMNSLKPEDTAVYYCATSDVREIWVDYWGQGTQVTVSS”: the “polyreactivity (PSR sort gate)” value was “low polyreactivity”.

“QVQLVESGGGLVQAGGSLRLSCAASGSIFKSNGMGWYRQAPGKERELVAAITGSGGTTYYADSVKGRFTISRDNAKNTVYLQMNSLKPEDTAVYYCAADIYWYPTYYYWGQGTQVTVSS”: the “polyreactivity (PSR sort gate)” value is listed as “low polyreactivity”.

With “QVQLVESGGGLVQAGGSLRLSCAASGSIFKVNVMGWYRQAPGKERELVAAISRSGGNTYYADSVKGRFTISRDNAKNTVYLQMNSLKPEDTAVYYCATGASYLRRYDHPHSDVDYWGQGTQVTVSS”, the “polyreactivity (PSR sort gate)” value was “low polyreactivity”.

“QVQLVESGGGLVQAGGSLRLSCAASGSIFKVYAMGWYRQAPGKERELVAAITGSGGSTYYADSVKGRFTISRDNAKNTVYLQMNSLKPEDTAVYYCNTDYYYSGYFRRFDYWGQGTQVTVSS”: the “polyreactivity (PSR sort gate)” value is “high polyreactivity”.

“QVQLVESGGGLVQAGGSLRLSCAASGSIFKWYAMGWYRQAPGKERALVATISSSGSSTYYADSVKGRLTISRDNAKNTVYLQMNSLKPEDTAVYYCATTYGWRYPAMDYWGQGTQVTVSS”: the “polyreactivity (PSR sort gate)” value was “high polyreactivity”.

For the sequence “QVQLVESGGGLVQAGGSLRLSCAASGSIFKWYAMGWYRQAPGKERELVASITWSGGSTYYADSVKGRFTISRDNAKNTVYLQMNSLKPEDTAVYYCNALSWVRGDYWGQGTQVTVSS”, the “polyreactivity (PSR sort gate)” value is “low polyreactivity”.

In the case of “QVQLVESGGGLVQAGGSLRLSCAASGSIFKWYAMGWYRQAPGKERELVAVISSGGNTYYADSVKGRFTISRDNAKNTVYLQMNSLKPEDTAVYYCAARVTSHMYYWGQGTQVTVSS”, the “polyreactivity (PSR sort gate)” value is listed as “high polyreactivity”.

For “QVQLVESGGGLVQAGGSLRLSCAASGSIFKYNAMGWYRPAPGKERELVAAISWSGGSTRYADSLKGRFTISRDNATNTGYLQMNSLKPEDTAVYYCAAKHGRNYAANALYGYWGQGTQVTVSS”, the “polyreactivity (PSR sort gate)” value is reported as “high polyreactivity”.

Consider “QVQLVESGGGLVQAGGSLRLSCAASGSIFKYNAMGWYRQAPGKERQLVAAISSSGGYTSYADSVKGRFTISRDNAKNTVYLQMNSLKPEDTAVYYCNAPYLIYKKGRYDYWGQGTQVTVSS”, for which the “polyreactivity (PSR sort gate)” value is given as “high polyreactivity”.

In the case of “QVQLVESGGGLVQAGGSLRLSCAASGSIFKYNPMGWDRQAPGKERELVAAITYRGASTYYADSVKGRFTISRDNAKNTVYLQMNSLKPEDTAVYYCNAKVRKSRFYYWGQGTQVTVSS”, the “polyreactivity (PSR sort gate)” value is reported as “high polyreactivity”.

Regarding “QVQLVESGGGLVQAGGSLRLSCAASGSIFKYYAMGWYRQAPGKERELVAAIDWSGGNTYADSVKGRFTISRDNAKNTVYLQMNSLKPEDTAVYYCNAPGFRRLWGFGYDYWGQGTQVTVSS”, the “polyreactivity (PSR sort gate)” value is reported as “high polyreactivity”.

In the case of “QVQLVESGGGLVQAGGSLRLSCAASGSIFKYYAMGWYRQAPGKERELVAAISTGGTTNYADSVKGRFTISRDNAKKTVYLQMNSLKPDDTAVYYCNRDFLVRSRYKYYYWGQGTQVTVSS”, the “polyreactivity (PSR sort gate)” value is listed as “low polyreactivity”.

For the sequence “QVQLVESGGGLVQAGGSLRLSCAASGSIFKYYTIGWYRQAPGKERELVAAISWSGGRTYYADSVKGRFTISRDIAKNTVYLQMNSLKPEDTAVYYCAKYVSYSRTLYDYWGQGTKVTVSS”, the “polyreactivity (PSR sort gate)” value is “high polyreactivity”.

For the sequence “QVQLVESGGGLVQAGGSLRLSCAASGSIFKYYTMGWYRQAPGKEREFVAAITRSGGSTYYADSVKGRFTISRDNAKNTVYLQMNSLKPEDTAVYYCAARTIRDQTVRFGHWGQGTQVTVSS”, the “polyreactivity (PSR sort gate)” value is “high polyreactivity”.

Consider “QVQLVESGGGLVQAGGSLRLSCAASGSIFKYYTMGWYRQAPGKERELVAAISWRGGSTYYADSVKGRFTISRDNAKNTVYLQMNSLKPEDTAVYYCAAKSYYNYYYWGQGTQVTVSS”, for which the “polyreactivity (PSR sort gate)” value is recorded as “high polyreactivity”.

Turning to “QVQLVESGGGLVQAGGSLRLSCAASGSIFKYYTRGWYRQAPGKERELVAAISGSGGTTYYADSVKGRFTISRDNAKNTVYLQMNSLKPEDTAVYYCATAYYRAFRGDYWGQGTQVTVSS”, the “polyreactivity (PSR sort gate)” value is recorded as “high polyreactivity”.

Regarding “QVQLVESGGGLVQAGGSLRLSCAASGSIFLIYDMGWYRQAPGKEMELVAAISNSVGSTYADSVKGRFTISRDNAKNTVYLQINSLKPEDTAVYYCNADSGPIDGRGGYWGQGTQVTVSS”, the “polyreactivity (PSR sort gate)” value was “low polyreactivity”.

As to “QVQLVESGGGLVQAGGSLRLSCAASGSIFLKYAMGWYRQAPGKERELVAAISSRGGSTYYADSVKGRFTISRDNAKNTVYLQMNSLKPEDTAVYYCAAKRWPGTDGYWGQGTQVTVSS”, the “polyreactivity (PSR sort gate)” value is “high polyreactivity”.
